This note sets out measurements from patent publication US20110124071A1, “METHODS AND COMPOSITIONS FOR PRODUCING HYDROCARBONS” (priority 2009, published 2011).

One series has as its target T1, PCC7942_orf1594 protein (Synechococcus elongatus, UniProt Q54765).
T1 construct: His-tag (C); made in house; host or cells: E. coli BL21 (DE3)
T1 sequence (Q54765 1-341): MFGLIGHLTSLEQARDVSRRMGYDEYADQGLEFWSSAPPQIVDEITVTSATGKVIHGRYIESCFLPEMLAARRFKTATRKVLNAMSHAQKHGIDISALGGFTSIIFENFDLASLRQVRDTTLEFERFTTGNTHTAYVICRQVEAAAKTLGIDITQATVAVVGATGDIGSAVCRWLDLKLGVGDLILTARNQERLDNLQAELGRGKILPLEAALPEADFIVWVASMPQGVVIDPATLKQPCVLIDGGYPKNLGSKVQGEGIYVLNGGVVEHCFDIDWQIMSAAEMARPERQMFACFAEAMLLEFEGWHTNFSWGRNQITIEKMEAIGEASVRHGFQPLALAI
Briefly: acyl-ACP or acyl-CoA reductase enzyme assay, GC/MS. The series is classed as biochemical. The protocol:
The genomic DNA encoding S. elongatus PCC7492 orf1594 (SEQ ID NO: 66) was cloned into the NcoI and XhoI sites of vector pET-28b under the control of the T7 promoter. The resulting PCC7942_orf1594 protein contained a C-terminal His-tag. An E. coli BL21 strain (DE3) (Invitrogen) was transformed with the plasmid and PCC7942_orf1594 protein was expressed and purified as described in Example 22. The protein solution was stored in the following buffer: 50 mM sodium phosphate, pH 7.5, 100 mM NaCl, 1 mM THP, 10% glycerol. Protein concentration was determined using the Bradford assay (Bio-Rad). 2 mg/ml of PCC7942 orf1594 protein was obtained.
To test PCC7942_orf1594 protein for acyl-ACP or acyl-CoA reductase activity, the following enzyme assays were set-up. 100 μl reactions were set-up in 50 mM Tris-HCl buffer at pH 7.5 with the following components at their respective final concentrations: 10 μM of purified PCC7942_orf1594 protein, 0.01-1 mM acyl-CoA or acyl-ACP, 2 mM MgCl2, 0.2-2 mM NADPH. The reactions were incubated for 1 h at 37° C. and where stopped by adding 100 μl ethyl acetate (containing 5 mg/l 1-octadecene as internal standard). Samples were vortexed for 15 min and centrifuged at max speed for 3 min for phase separation. 80 μl of the top layer were transferred into GC glass vials and analyzed by GC/MS as described in Example 26. The amount of aldehyde formed was calculated based on the internal standard.

Series [1] relates to E. coli MG1655. In words: Heterologous expression of putative aldehyde-generating enzyme alone in E. coli, GC-MS of extracts. In kind it is cell-based. Particulars: enzyme expressed alone in E. coli MG1655, M9 minimal media, 37° C. The protocol:
(§1) The genomic DNA encoding Synechococcus elongatus PCC7942 orf1594 (YP—400611; putative aldehyde-generating enzyme) (SEQ ID NO: 65) was amplified and cloned into the NcoI and EcoRI sites of vector OP-80 (pCL1920 derivative) under the control of the Ptrc promoter. The resulting construct (“OP80-PCC7942—1594”) was transformed into E. coli MG1655 and the cells were grown at 37° C. in M9 minimal media with 1% (w/v) glucose as carbon source and supplemented with 100 μg/ml spectinomycin. When the culture reached OD600 of 0.8-1.0, it was induced with 1 mM IPTG and cells were grown for an additional 18-20 h at 37° C. Cells from 0.5 ml of culture were extracted with 0.5 ml of ethyl acetate. After sonication for 60 min, the sample was centrifuged at 15,000 rpm for 5 min. The solvent layer was analyzed by GC-MS as described in Example 1.
The genomic DNA encoding Cyanothece sp. ATCC51142 cce—1430 (YP—001802846; putative aldehyde-generating enzyme) (SEQ ID NO: 70) was amplified and cloned into the NcoI and EcoRI sites of vector OP-80 (pCL1920 derivative) under the control of the Ptrc promoter. The resulting construct was transformed into E. coli MG1655 and the cells were grown at 37° C. in M9 minimal media with 1% (w/v) glucose as carbon source and supplemented with 100 μg/ml spectinomycin. The cells were cultured and extracted as in Example 3 and analyzed by GC-MS as described in Example 26.
The genomic DNA encoding P. mariunus CCMP1986 PMM0533 (NP_892651; putative aldehyde-generating enzyme) (SEQ ID NO: 72) and Prochlorococcus mariunus CCMP1986 PMM0532 (NP_892650; putative decarbonylase) (SEQ ID NO: 19) were amplified and cloned into the NcoI and EcoRI sites of vector OP-80 and the NdeI and XhoI sites of vector OP-183, respectively. The resulting constructs were separately transformed and cotransformed into E. coli MG1655 and the cells were grown at 37° C. in M9 minimal media supplemented with 100 μg/ml spectinomycin and 100 μg/ml carbenicillin. The cells were cultured and extracted as in Example 3 and analyzed by GC-MS as described in Example 26.

For series [2], the system named is E. coli MG1655 ΔfadE lacZ::Ptrc ′tesA-fadD. Briefly: Heterologous expression in a fatty acyl-CoA-producing E. coli strain, GC-MS. In kind it is cell-based. The following applies: for conversion of fatty aldehydes into alkanes/alkenes: decarbonylase coexpressed with acyl-ACP reductase in acyl-CoA-producing strain. From the text: The genomic DNA encoding Acaryochloris marina MBIC11017 AM1—4041 (YP—001518340; putative fatty aldehyde decarbonylase) (SEQ ID NO: 9) was synthesized and cloned into the NdeI and XhoI sites of vector OP-183 (pACYC derivative) under the control of the Ptrc promoter. The resulting construct was cotransformed with OP80-PCC7942—1594 into E. coli MG1655 ΔfadE lacZ::Ptrc ′tesA-fadD. This strain expresses a cytoplasmic version of the E. coli thioesterase, ′TesA, and the E. coli acyl-CoA synthetase, FadD, under the control of the Ptrc promoter, and therefore produces fatty acyl-CoAs. The cells were grown at 37° C. in M9 minimal media supplemented with 100 μg/ml spectinomycin and 100 μg/ml carbenicillin. The cells were cultured and extracted as in Example 3 and analyzed by GC-MS as described in Example 1.
The genomic DNA encoding Synechocystis sp. PCC6803 sll0208 (NP_442147; putative fatty aldehyde decarbonylase) (SEQ ID NO: 3) was synthesized and cloned into the NdeI and XhoI sites of vector OP-183 (pACYC derivative) under the control of the Ptrc promoter. The genomic DNA encoding Synechocystis sp. PCC6803 sll0209 (NP_442146; acyl-ACP reductase) (SEQ ID NO: 68) was synthesized and cloned into the NcoI and EcoRI sites of vector OP-183 (pACYC derivative) under the control of the Ptrc promoter. The resulting constructs were cotransformed with into E. coli MG1655 ΔfadE lacZ::Ptrc ′tesA-fadD. This strain expresses a cytoplasmic version of the E. coli thioesterase, ′TesA, and the E. coli acyl-CoA synthetase, FadD, under the control of the Ptrc promoter, and therefore produces fatty acyl-CoAs. The cells were grown at 37° C. in M9 minimal media supplemented with 100 μg/ml spectinomycin and 100 μg/ml carbenicillin. The cells were cultured and extracted as in Example 3 and analyzed by GC-MS as described in Example 26.

Series [3] relates to E. coli MG1655. In words: Coexpression of putative decarbonylase with S. elongatus PCC7942 orf1594 in E. coli, GC-MS of extracts. The series is classed as cell-based. Particulars: coexpressed with S. elongatus PCC7942 orf1594 in E. coli MG1655, M9 minimal media. The protocol:
After a 1 μl splitless injection (inlet temperature held at 300° C.) onto the GC/MS column, the oven was held at 100° C. for 3 mins. The temperature was ramped up to 320° C. at a rate of 20° C./min. The oven was held at 320° C. for an additional 5 min. The flow rate of the carrier gas helium was 1.3 ml/min. The MS quadrapole scanned from 50 to 550 m/z. Retention times and fragmentation patterns of product peaks were compared with authentic references to confirm peak identity.
as §1
The genomic DNA encoding Synechococcus elongatus PCC7942 orf1593 (YP—400610; putative decarbonylase) (SEQ ID NO: 1) was amplified and cloned into the NdeI and XhoI sites of vector OP-183 (pACYC derivative) under the control of the Ptrc promoter. The resulting construct was cotransformed with OP80-PCC7942—1594 into E. coli MG1655 and the cells were grown at 37° C. in M9 minimal media supplemented with 100 μg/ml spectinomycin and 100 μg/ml carbenicillin. The cells were cultured and extracted as in Example 3 and analyzed by GC-MS as described in Example 1. […]

Series [4] relates to E. coli MG1655 ΔfadD lacZ::Ptrc-′tesA. In words: Heterologous expression in a fatty aldehyde-producing E. coli strain with MSMEG—5739, GC-MS. In kind it is cell-based. The following applies: decarbonylase coexpressed with carboxylic acid reductase MSMEG—5739.
Where [5] appears, read: in the presence of 2 mM NADPH, read-out: Km for the reduction by PCC7942_orf1594.

Read-outs that look alike come from different tables or passages of the source.

By Km is commonly meant the concentration of substrate that gives half-maximal velocity. Take `NC(=O)C1=CN([C@@H]2O[C@H](COP(=O)(O)OP(=O)(O)OC[C@H]3O[C@@H](n4cnc5c(N)ncnc54)[C@H](OP(=O)(O)O)[C@@H]3O)[C@@H](O)[C@H]2O)C=CC1` [NADPH]: at PCC7942_orf1594 protein (in the presence of 0.5 mM octadecanoyl-CoA, read-out: Km value for NADPH for PCC7942_orf1594), the Km came out at 400 ± 80 µM.
For octadecenoyl-CoA, at PCC7942_orf1594 protein (setting [5]), the Km came out at 82 ± 22 µM.
As for `NC(=O)C1=CN([C@@H]2O[C@H](COP(=O)(O)OP(=O)(O)OC[C@H]3O[C@@H](n4cnc5c(N)ncnc54)[C@H](O)[C@@H]3O)[C@@H](O)[C@H]2O)C=CC1` [NADH], the “support of reductase activity as electron donor” value at PCC7942_orf1594 protein (reduction of octadecanoyl-CoA to octadecanal) was “did not support reductase activity”.

B1: ATCC51142 cce—1430: Cyanothece sp. ATCC51142 putative aldehyde-generating enzyme, Acyl-ACP reductase (SEQ ID NO: 70) (protein, listed as Cyanothece sp.)
chain: MFGLIGHLTSLEHAHSVADAFGYGPYATQGLDLWCSAPPQFVEHFHVTSITGQTIEGKYIESAFLPEMLIKRRIKAAIRKILNAMAFAQKNNLNITALGGFSSIIFEEFNLKENRQVRNVSLEFDRFTTGNTHTAYIICRQVEQASAKLGIDLSQATVAICGATGDIGSAVCRWLDRKTDTQELFLIARNKERLQRLQDELGRGKIMGLEEALPEADIIVWVASMPKGVEINAETLKKPCLIIDGGYPKNLDTKIKHPDVHILKGGIVEHSLDIDWKIMETVNMDVPSRQMFACFAEAILLEFEQWHTNFSWGRNQITVTKMEQIGEASVKHGLQPLLSW
As for B1, the “production of fatty aldehydes and fatty alcohols” value in the series with E. coli MG1655 [1] was “generates aldehydes in vivo”.

B2: Synechocystis sp. PCC6803 sll0209: Synechocystis sp. PCC6803 acyl-ACP reductase (SEQ ID NO: 68) (protein, listed as Synechocystis sp.)
chain: MFGLIGHLTSLEHAQAVAEDLGYPEYANQGLDFWCSAPPQVVDNFQVKSVTGQVIEGKYVESCFLPEMLTQRRIKAAIRKILNAMALAQKVGLDITALGGFSSIVFEEFNLKQNNQVRNVELDFQRFTTGNTHTAYVICRQVESGAKQLGIDLSQATVAVCGATGDIGSAVCRWLDSKHQVKELLLIARNRQRLENLQEELGRGKIMDLETALPQADIIVWVASMPKGVEIAGEMLKKPCLIVDGGYPKNLDTRVKADGVHILKGGIVEHSLDITWEIMKIVEMDIPSRQMFACFAEAILLEFEGWRTNFSWGRNQISVNKMEAIGEASVKHGFCPLVAL
With B2, the “use of acyl-CoA as substrate to produce fatty aldehydes” value in series [2] (reductase coexpressed with a fatty aldehyde decarbonylase) is on record as “able to use acyl-CoA as a substrate”. For the same molecule, the “production of fatty aldehydes or fatty alcohols” value in series [2] (reductase expressed alone in acyl-CoA-producing strain) is “did not produce any fatty aldehydes or fatty alcohols”.

B3: AM1—4041: Acaryochloris marina MBIC11017 putative decarbonylase (SEQ ID NO: 9) (protein, listed as Acaryochloris marina)
chain: MPQTQAISEIDFYSDTYKDAYSRIDGIVIEGEQEAHENYIRLGEMLPEHQDDFIRLSKMEARHKKGFEACGRNLKVTCDLDFARRFFSDLHKNFQDAAAEDKVPTCLVIQSLIIECFAIAAYNIYIPVADDFARKITESVVKDEYQHLNYGEEWLKAHFDDVKAEIQEANRKNLPIVWRMLNEVDKDAAVLGMEKEALVEDFMIQYGEALSNIGFSTGEIMRMSAYGLVAA
For B3, the “fatty aldehyde decarbonylase activity (alkane/alkene production)” value in the series with E. coli MG1655 [3] is on record as “active fatty aldehyde decarbonylase”. Also, in series [2], the “conversion of fatty aldehydes into alkanes/alkenes” value was “converted into pentadecene, pentadecane and heptadecene”. For the same molecule, the “conversion of fatty aldehydes provided by MSMEG—5739 to alkanes” value in series [4] is “converted fatty aldehydes provided by MSMEG—5739 to the corresponding alkanes”.

B4: octadecenoyl-ACP (conjugate, UniProt Q31QV1 1-80, looked up)
Acyl carrier protein: MSQEDIFSKVKDIVAEQLSVDVAEVKPESSFQNDLGADSLDTVELVMALEEAFDIEIPDEAAEGIATVQDAVDFIASKAA
modifications: octadecenoyl acyl thioester
notes: acyl-ACP (acyl carrier protein) substrate of PCC7942_orf1594 reductase
B4: in the series with PCC7942_orf1594 protein (setting [5]), the Km amounted to 7.8 ± 2 µM.

B5: Synechocystis sp. PCC6803 sll0208: Synechocystis sp. PCC6803 putative fatty aldehyde decarbonylase (SEQ ID NO: 3) (protein, listed as Synechocystis sp.)
chain: MPELAVRTEFDYSSEIYKDAYSRINAIVIEGEQEAYSNYLQMAELLPEDKEELTRLAKMENRHKKGFQACGNNLQVNPDMPYAQEFFAGLHGNFQHAFSEGKVVTCLLIQALIIEAFAIAAYNIYIPVADDFARKITEGVVKDEYTHLNYGEEWLKANFATAKEELEQANKENLPLVWKMLNQVQGDAKVLGMEKEALVEDFMISYGEALSNIGFSTREIMRMSSYGLAGV
Consider B5, for which, in series [2], the “conversion of fatty aldehydes into alkanes/alkenes” value was “octadecenal was converted into heptadecene”.
